Results as given in patent US20140322307A1 (LIPOTEC S A, published 2014).

T1: Proteinase-Activated Receptor-2 (human, on human keratinocytes) (human, UniProt P55085 37-397)
T1 sequence (looked up): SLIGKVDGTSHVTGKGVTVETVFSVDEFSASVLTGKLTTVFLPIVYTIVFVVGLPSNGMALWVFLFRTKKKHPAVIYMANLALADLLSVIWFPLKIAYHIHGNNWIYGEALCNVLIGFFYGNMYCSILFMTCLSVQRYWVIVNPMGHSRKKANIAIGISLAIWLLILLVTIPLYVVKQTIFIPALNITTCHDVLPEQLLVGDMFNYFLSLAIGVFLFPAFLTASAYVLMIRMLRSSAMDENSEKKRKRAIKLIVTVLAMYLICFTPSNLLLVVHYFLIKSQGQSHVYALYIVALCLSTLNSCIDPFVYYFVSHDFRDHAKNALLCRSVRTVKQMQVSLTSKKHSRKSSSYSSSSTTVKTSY


These binders were tested against T1, Proteinase-Activated Receptor-2 (human, …) (assay: cell-based or functional assay).

Binder | Inhibition PAR-2 activity (calcium fluorescence, human keratinocytes, peptide at 1 mg/mL) | PAR-2 activity (calcium fluorescence, human keratinocytes, peptide at 1 mg/mL)
Ac-FMWFHS-NH2 [Ac-L-Phe-L-Met-L-Trp-L-Phe-L-His-L-Ser-NH2] | 72.2% | 27.8%
Ac-SFRFIS-NH2 [Ac-L-Ser-L-Phe-L-Arg-L-Phe-L-Ile-L-Ser-NH2] | 16.2% | 83.8%
Ac-SMWFIS-NH2 [Ac-L-Ser-L-Met-L-Trp-L-Phe-L-Ile-L-Ser-NH2] | 67.8% | 32.2%
Ac-FMRFIS-NH2 [Ac-L-Phe-L-Met-L-Arg-L-Phe-L-Ile-L-Ser-NH2] | 35.1% | 64.9%
Ac-FMWDIS-NH2 [Ac-L-Phe-L-Met-L-Trp-L-Asp-L-Ile-L-Ser-NH2] | 26.5% | 73.5%
Ac-FMQFIS-NH2 [Ac-L-Phe-L-Met-L-Gln-L-Phe-L-Ile-L-Ser-NH2] | 89.1% | 10.9%
Ac-FFQFIS-NH2 [Ac-L-Phe-L-Phe-L-Gln-L-Phe-L-Ile-L-Ser-NH2] | 59.3% | 40.7%
Ac-FFQDIS-NH2 [Ac-L-Phe-L-Phe-L-Gln-L-Asp-L-Ile-L-Ser-NH2] | 27% | 73%
Ac-FFWFIS-NH2 [Ac-L-Phe-L-Phe-L-Trp-L-Phe-L-Ile-L-Ser-NH2] | 66.3% | 33.7%

Next, values leading:

Inhibition PAR-2 activity (calcium fluorescence, human keratinocytes, peptide at 1 mg/mL) | PAR-2 activity (calcium fluorescence, human keratinocytes, peptide at 1 mg/mL) | Binder
49.2% | 50.8% | Ac-FFWFHS-NH2 [Ac-L-Phe-L-Phe-L-Trp-L-Phe-L-His-L-Ser-NH2]
23% | 77% | Ac-FMQFHS-NH2 [Ac-L-Phe-L-Met-L-Gln-L-Phe-L-His-L-Ser-NH2]
26.4% | 73.6% | Ac-SFWFHS-NH2 [Ac-L-Ser-L-Phe-L-Trp-L-Phe-L-His-L-Ser-NH2]
52.6% | 47.4% | Ac-SMQFIS-NH2 [Ac-L-Ser-L-Met-L-Gln-L-Phe-L-Ile-L-Ser-NH2]
38.4% | 61.6% | Ac-FFWDIS-NH2 [Ac-L-Phe-L-Phe-L-Trp-L-Asp-L-Ile-L-Ser-NH2]
67.7% | 32.3% | Ac-FMWFIS-NH2 [Ac-L-Phe-L-Met-L-Trp-L-Phe-L-Ile-L-Ser-NH2]
64.9% | 35.1% | Ac-SMWFHS-NH2 [Ac-L-Ser-L-Met-L-Trp-L-Phe-L-His-L-Ser-NH2]
66.9% | 33.1% | Ac-FMRDHS-NH2 [Ac-L-Phe-L-Met-L-Arg-L-Asp-L-His-L-Ser-NH2]
39% | 61% | Ac-SFQFIS-NH2 [Ac-L-Ser-L-Phe-L-Gln-L-Phe-L-Ile-L-Ser-NH2]
